Test results as given in the supplement of paper PMC11136658.

System: peptide library, one residue held at a place counted from the Y acceptor
Experiment: relative phosphorylation of the sub-library (ratio to the mean residue at this position); higher = residue favoured
Summary of the method: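 Biotinylated Tyr-centred peptide library mixtures, each fixing one residue at one position from −5 to +5, were incubated with purified recombinant kinases in 384-well plates for 90 min with 50 μM ATP plus γ-32P-ATP. Streptavidin membranes captured the peptides, which were rinsed and quantified by phosphorimaging and ImageQuant. At each position, intensities were divided by the sum of the 18 randomized residues (16 for the Ser/Thr-free library) and multiplied by that number. Each value is phosphorylation relative to the mean randomized residue.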

Sequence of CSF1R, construct: aa539-end, human (P07333 539-972, looked up): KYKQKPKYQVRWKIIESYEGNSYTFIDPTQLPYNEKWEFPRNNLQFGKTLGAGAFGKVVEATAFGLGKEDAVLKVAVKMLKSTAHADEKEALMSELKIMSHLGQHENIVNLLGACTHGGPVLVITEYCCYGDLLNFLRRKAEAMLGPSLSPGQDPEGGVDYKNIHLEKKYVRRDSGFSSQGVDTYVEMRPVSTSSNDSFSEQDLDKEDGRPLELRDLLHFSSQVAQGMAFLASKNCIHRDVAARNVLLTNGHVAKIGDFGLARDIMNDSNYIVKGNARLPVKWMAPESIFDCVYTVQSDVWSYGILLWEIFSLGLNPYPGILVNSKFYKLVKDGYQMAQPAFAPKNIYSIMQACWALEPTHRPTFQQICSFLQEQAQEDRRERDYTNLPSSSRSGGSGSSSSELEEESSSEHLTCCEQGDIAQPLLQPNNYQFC
Sequence of CSK, construct: Full length, human (P41240 whole entry, looked up): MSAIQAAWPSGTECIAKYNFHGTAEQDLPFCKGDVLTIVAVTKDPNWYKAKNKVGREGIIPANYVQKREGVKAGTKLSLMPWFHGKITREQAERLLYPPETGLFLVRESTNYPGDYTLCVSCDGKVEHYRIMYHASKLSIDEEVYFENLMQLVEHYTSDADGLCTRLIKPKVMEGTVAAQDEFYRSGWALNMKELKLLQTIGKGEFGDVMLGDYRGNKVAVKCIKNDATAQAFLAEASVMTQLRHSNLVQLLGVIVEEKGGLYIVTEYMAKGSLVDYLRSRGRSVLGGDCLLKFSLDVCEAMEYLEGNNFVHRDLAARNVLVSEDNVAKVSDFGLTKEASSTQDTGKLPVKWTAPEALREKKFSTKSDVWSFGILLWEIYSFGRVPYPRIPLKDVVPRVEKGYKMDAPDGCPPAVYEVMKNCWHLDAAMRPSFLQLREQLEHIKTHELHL

CSF1R, construct: aa539-end, human (from UniProt P07333)
relative phosphorylation
Details | at +1 | at +2 | at +3 | at +4 | at +5 | at -1 | at -2 | at -3 | at -4 | at -5
A fixed | 0.891 | 0.881 | 0.64 | 0.958 | 0.873 | 0.884 | 1.16 | 1.02 | 1.07 | 1.09
D fixed | 0.331 | 0.636 | 0.32 | 0.718 | 0.844 | 1.13 | 1.11 | 1.36 | 1.3 | 1.14
E fixed | 0.638 | 0.924 | 0.246 | 0.784 | 0.832 | 1.06 | 1.17 | 1.77 | 1.47 | 1.06
F fixed | 1.89 | 1.09 | 1.97 | 1.27 | 0.977 | 1.04 | 0.617 | 0.741 | 0.821 | 0.963
G fixed | 0.444 | 0.508 | 0.633 | 1.15 | 1.43 | 0.656 | 1.22 | 1.27 | 1.23 | 1.2
H fixed | 1.74 | 0.993 | 0.863 | 1.15 | 1.05 | 1.77 | 0.992 | 0.973 | 0.923 | 1
I fixed | 1.67 | 1.04 | 2.14 | 0.891 | 0.781 | 1.62 | 0.834 | 0.63 | 0.846 | 0.783
K fixed | 0.674 | 0.951 | 0.632 | 1.01 | 1.05 | 0.535 | 0.751 | 0.731 | 0.878 | 0.98
L fixed | 1.3 | 1.21 | 1.93 | 0.874 | 0.689 | 1.23 | 0.952 | 0.763 | 0.858 | 0.817
M fixed | 1.2 | 1.05 | 1.67 | 1.06 | 0.927 | 0.91 | 0.757 | 0.755 | 0.863 | 0.909
N fixed | 0.512 | 0.965 | 0.523 | 0.975 | 1.08 | 1.15 | 1.16 | 1.21 | 0.936 | 1.12
P fixed | 0.565 | 0.847 | 1.13 | 0.922 | 1.34 | 1.05 | 1.6 | 1.17 | 1.34 | 1.29
Q fixed | 0.973 | 0.989 | 0.519 | 0.965 | 0.931 | 0.919 | 1.03 | 1.07 | 0.921 | 0.93
R fixed | 0.745 | 1.31 | 0.929 | 1.36 | 1.2 | 0.474 | 0.844 | 0.786 | 0.782 | 0.871
S fixed | 0.721 | 0.893 | 0.604 | 1.02 | 1.24 | 0.687 | 1.2 | 1.14 | 0.97 | 1.03
T fixed | 0.938 | 1.11 | 0.856 | 1.04 | 1.07 | 1.08 | 1.08 | 1.12 | 0.899 | 1.01
V fixed | 1.56 | 1.11 | 1.47 | 0.851 | 0.756 | 1.12 | 0.939 | 0.748 | 0.866 | 0.859
W fixed | 1.2 | 1.49 | 0.91 | 1.01 | 0.928 | 0.678 | 0.575 | 0.745 | 1.02 | 0.943
pThr fixed | 0.739 | 1.17 | 0.232 | 0.432 | 0.567 | 1.02 | 0.996 | 1.2 | 1.12 | 0.956
pTyr fixed | 1.61 | 1.25 | 0.341 | 0.698 | 0.773 | 1.87 | 1.01 | 1.11 | 1.16 | 1

CSK, construct: Full length, human (from UniProt P41240)
relative phosphorylation
Details | at +1 | at +2 | at +3 | at +4 | at +5 | at -1 | at -2 | at -3 | at -4 | at -5
A fixed | 1.41 | 0.875 | 0.728 | 0.981 | 1.32 | 0.815 | 1.34 | 0.852 | 1.16 | 1.05
D fixed | 0.482 | 1.38 | 0.566 | 1.08 | 0.834 | 0.976 | 0.757 | 1.29 | 1.3 | 1.07
E fixed | 0.852 | 1.46 | 0.505 | 1.36 | 0.948 | 1.78 | 0.958 | 2.98 | 1.99 | 1.16
F fixed | 1.31 | 1.36 | 2.01 | 1.1 | 1.07 | 1.38 | 0.554 | 0.79 | 1.12 | 1.37
G fixed | 0.515 | 0.485 | 0.648 | 1.17 | 1.14 | 0.362 | 1.07 | 0.915 | 1.23 | 1.15
H fixed | 1.03 | 0.914 | 0.901 | 1.22 | 1.13 | 1.2 | 0.684 | 0.839 | 0.869 | 0.994
I fixed | 1.71 | 1.07 | 2.04 | 0.759 | 0.869 | 2.44 | 1.14 | 0.774 | 0.913 | 1.05
K fixed | 0.4 | 0.606 | 0.389 | 0.815 | 0.684 | 0.472 | 0.659 | 0.867 | 0.812 | 0.748
L fixed | 1.13 | 1.08 | 1.07 | 0.746 | 1.02 | 1.24 | 0.761 | 0.763 | 0.86 | 1.07
M fixed | 1.1 | 0.839 | 1.01 | 1.06 | 0.937 | 0.9 | 0.558 | 0.832 | 0.866 | 1.01
N fixed | 0.362 | 1.06 | 0.509 | 0.875 | 0.974 | 0.679 | 0.765 | 0.901 | 0.705 | 0.845
P fixed | 0.23 | 0.59 | 1.02 | 1.08 | 1.39 | 0.395 | 2.04 | 0.944 | 1.03 | 1.01
Q fixed | 0.988 | 0.791 | 0.607 | 0.992 | 0.954 | 0.691 | 0.952 | 0.772 | 1.07 | 0.839
R fixed | 0.524 | 0.757 | 0.46 | 0.859 | 0.717 | 0.409 | 0.738 | 0.976 | 0.758 | 0.735
S fixed | 0.787 | 0.978 | 0.734 | 0.868 | 1.14 | 0.533 | 1.47 | 0.958 | 0.826 | 0.943
T fixed | 0.803 | 0.829 | 0.689 | 0.879 | 1.07 | 0.926 | 1.16 | 0.918 | 0.715 | 0.897
V fixed | 1.67 | 1.03 | 1.6 | 0.831 | 0.769 | 1.65 | 1.81 | 0.769 | 0.778 | 0.831
W fixed | 2.7 | 1.9 | 2.52 | 1.34 | 1.03 | 1.16 | 0.576 | 0.859 | 1.01 | 1.22
pThr fixed | 1.23 | 1.87 | 0.582 | 1.12 | 0.922 | 1.02 | 0.787 | 1.35 | 1.03 | 1.02
pTyr fixed | 3.21 | 7.03 | 1.05 | 1.36 | 1.64 | 4.72 | 1.71 | 2.14 | 2.83 | 1.74
